Reference: the supplement of paper PMC11246515
± gives the standard deviation of the averaged measurements.

Assay: total protein half-life in vivo (active degradation + dilution); higher = more stable protein
[1] = E. coli NCM3722 delta-clpP delta-lon delta-hslV, growth: N-lim chemostat, doubling time 6 h
[2] = E. coli NCM3722 delta-clpP, growth: N-lim chemostat, doubling time 6 h
[3] = E. coli NCM3722 delta-hslV, growth: N-lim chemostat, doubling time 6 h
[4] = E. coli NCM3722 delta-lon, growth: N-lim chemostat, doubling time 6 h
[5] = E. coli NCM3722 delta-smpB, growth: N-lim chemostat, doubling time 6 h
[6] = wild type E. coli NCM3722, growth: C-lim chemostat, doubling time 3 h
[7] = wild type E. coli NCM3722, growth: C-lim chemostat, doubling time 6 h
[8] = wild type E. coli NCM3722, growth: C-lim chemostat, doubling time 12 h
[9] = wild type E. coli NCM3722, growth: N-lim chemostat, doubling time 6 h
[10] = wild type E. coli NCM3722, growth: N-lim chemostat, doubling time 12 h
[11] = wild type E. coli NCM3722, growth: P-lim chemostat, doubling time 6 h
[12] = wild type E. coli NCM3722, growth: P-lim chemostat, doubling time 12 h

| Sequence | total protein half-life in vivo [1] [h] | total protein half-life in vivo [2] [h] | total protein half-life in vivo [3] [h] | total protein half-life in vivo [4] [h] | total protein half-life in vivo [5] [h] | total protein half-life in vivo [6] [h] | total protein half-life in vivo [7] [h] | total protein half-life in vivo [8] [h] | total protein half-life in vivo [9] [h] | total protein half-life in vivo [10] [h] | total protein half-life in vivo [11] [h] | total protein half-life in vivo [12] [h] |
| --- | --- | --- | --- | --- | --- | --- | --- | --- | --- | --- | --- | --- |
| MELKATTLGKRLAQHPYDRAVILNAGIKVSGDRHEYLIPFNQLLAIHCKRGLVWGELEFVLPDEKVVRLHGTEWGETQRFYHHLDAHWRRWSGEMSEIASGVLRQQLDLIATRTGENKWLTREQTSGVQQQIRQALSALPLPVNRLEEFDNCREAWRKCQAWLKDIESARLQHNQAYTEAMLTEYADFFRQVESSPLNPAQARAVVNGEHSLLVLAGAGSGKTSVLVARAGWLLARGEASPEQILLLAFGRKAAEEMDERIRERLHTEDITARTFHALALHIIQQGSKKVPIVSKLENDTAARHELFIAEWRKQCSEKKAQAKGWRQWLTEEMQWSVPEGNFWDDEKLQRRLASRLDRWVSLMRMHGGAQAEMIASAPEEIRDLFSKRIKLMAPLLKAWKGALKAENAVDFSGLIHQAIVILEKGRFISPWKHILVDEFQDISPQRAALLAALRKQNSQTTLFAVGDDWQAIYRFSGAQMSLTTAFHENFGEGERCDLDTTYRFNSRIGEVANRFIQQNPGQLKKPLNSLTNGDKKAVTLLDESQLDALLDKLSGYAKPEERILILARYHHMRPASLEKAATRWPKLQIDFMTIHASKGQQADYVIIVGLQEGSDGFPAAARESIMEEALLPPVEDFPDAEERRLMYVALTRARHRVWALFNKENPSPFVEILKNLDVPVARKP | 6.73 ± 0.37 | 5.42 ± 0.098 | 4.93 ± 0.55 | 5.31 ± 0.26 | 4.17 ± 0.1 | 2.66 ± 0.17 | 5.06 ± 0.43 | 8.95 ± 0.32 | 4.45 ± 0.033 | 7.69 ± 0.31 | 4.69 ± 0.16 | 9.53 ± 0.42 |
| MELLCPAGNLPALKAAIENGADAVYIGLKDDTNARHFAGLNFTEKKLQEAVSFVHQHRRKLHIAINTFAHPDGYARWQRAVDMAAQLGADALILADLAMLEYAAERYPHIERHVSVQASATNEEAINFYHRHFDVARVVLPRVLSIHQVKQLARVTPVPLEVFAFGSLCIMSEGRCYLSSYLTGESPNTIGACSPARFVRWQQTPQGLESRLNEVLIDRYQDGENAGYPTLCKGRYLVDGERYHALEEPTSLNTLELLPELMAANIASVKIEGRQRSPAYVSQVAKVWRQAIDRCKADPQNFVPQSAWMETLGSMSEGTQTTLGAYHRKWQ | 4.53 |  |  |  |  |  |  |  |  |  |  |  |
| MELLLLSNSTLPGKAWLEHALPLIAEQLQGRRSAVFIPFAGVTQTWDDYTAKTAAVLAPLGVSVTGIHSVVDPVAAIENAEIVIVGGGNTFQLLKQCRERGLLAPITDVVKRGALYIGWSAGANLACPTIRTTNDMPIVDPQGFDALNLFPLQINPHFTNALPEGHKGETREQRIRELLVVAPELTIIGLPEGNWITVSKGHATLGGPNTTYVFKAGEEAVPLEAGHRF [P0A7C6] | 3.28 |  |  |  |  | 3.03 | 4.93 ± 0.56 | 9.36 | 4.73 | 5.8 | 5.69 ± 0.077 | 11.1 ± 0.86 |
| MELYLDTSDVVAVKALSRIFPLAGVTTNPSIIAAGKKPLDVVLPQLHEAMGGQGRLFAQVMATTAEGMVNDALKLRSIIADIVVKVPVTAEGLAAIKMLKAEGIPTLGTAVYGAAQGLLSALAGAEYVAPYVNRIDAQGGSGIQTVTDLHQLLKMHAPQAKVLAASFKTPRQALDCLLAGCESITLPLDVAQQMISYPAVDAAVAKFEQDWQGAFGRTSI | 4.96 ± 0.38 | 4.345 ± 0.017 | 4.474 ± 0.0021 | 4.44 ± 0.26 | 4.3899 ± 0.004 | 2.703 ± 0.021 | 5.36 | 8.19 ± 0.81 | 3.81 ± 0.38 | 7.04 ± 2.2 | 5.72 ± 0.61 | 10 ± 0.64 |
| MEMLEEHRCFEGWQQRWRHDSSTLNCPMTFSIFLPPPRDHTPPPVLYWLSGLTCNDENFTTKAGAQRVAAELGIVLVMPDTSPRGEKVANDDGYDLGQGAGFYLNATQPPWATHYRMYDYLRDELPALVQSQFNVSDRCAISGHSMGGHGALIMALKNPGKYTSVSAFAPIVNPCSVPWGIKAFSSYLGEDKNAWLEWDSCALMYASNAQDAIPTLIDQGDNDQFLADQLQPAVLAEAARQKAWPMTLRIQPGYDHSYYFIASFIEDHLRFHAQYLLK | 5.79 ± 0.058 | 5.61 ± 0.89 |  | 6.09 ± 0.43 | 5.19 ± 0.2 | 3.5 ± 0.13 | 5.59 ± 0.15 | 13 ± 2.8 | 5.67 ± 0.38 | 8.798 ± 0.034 | 6.2 ± 0.11 | 11.9 ± 1.7 |
| MEMLSGAEMVVRSLIDQGVKQVFGYPGGAVLDIYDALHTVGGIDHVLVRHEQAAVHMADGLARATGEVGVVLVTSGPGATNAITGIATAYMDSIPLVVLSGQVATSLIGYDAFQECDMVGISRPVVKHSFLVKQTEDIPQVLKKAFWLAASGRPGPVVVDLPKDILNPANKLPYVWPESVSMRSYNPTTTGHKGQIKRALQTLVAAKKPVVYVGGGAITAGCHQQLKETVEALNLPVVCSLMGLGAFPATHRQALGMLGMHGTYEANMTMHNADVIFAVGVRFDDRTTNNLAKYCPNATVLHIDIDPTSISKTVTADIPIVGDARQVLEQMLELLSQESAHQPLDEIRDWWQQIEQWRARQCLKYDTHSEKIKPQAVIETLWRLTKGDAYVTSDVGQHQMFAALYYPFDKPRRWINSGGLGTMGFGLPAALGVKMALPEETVVCVTGDGSIQMNIQELSTALQYELPVLVVNLNNRYLGMVKQWQDMIYSGRHSQSYMQSLPDFVRLAEAYGHVGIQISHPHELESKLSEALEQVRNNRLVFVDVTVDGSEHVYPMQIRGGGMDEMWLSKTERT | 5.76 ± 1.1 | 5.31 ± 0.18 | 5.06 ± 0.41 | 5.03 ± 0.088 | 5.13 ± 0.46 | 3.03 ± 0.14 | 6.41 ± 0.94 | 11.1 ± 0.39 | 4.78 ± 0.1 | 8.81 ± 0.62 | 6.092 ± 0.014 | 12 ± 0.24 |
